The record followed here is US20110257102A1 (CASE WESTERN RESERVE UNIVERSITY, published 2011).

“And” between values parts separate entries of the source, which are not always exact repeats. Identical values can stand only once.

B1: GST-tagged FLNa domain 10 (other)
chain: VPCFDASKVKCSGPGLERATAGEVGQFQVDCSSAGSAELTIEICSEAGLPAEVYIQDHGDGTHTITYIPLCPGAYTVTIKYGGQPVPNFPSKLQV
notes: domain: domain 10
B2: GST-tagged FLNa domain 11 (other)
chain: EPAVDTSGVQCYGPGIEGQGVFREATTEFSVDARALTQTGGPHVKARVANPSGNLTETYVQDRGDGMYKVEYTPYEEGLHSVDVTYDGSPVPSSPFQVPV
notes: domain: domain 11
B3: GST-tagged FLNa domain 24 (other)
chain: PGPADASKVVAKGLGLSKAYVGQKSSFTVDCSKAGNNMLLVGVHGPRTPCEEILVKHVGSRLYSVSYLLKDKGEYTLVVKWGDEHIPGSPYRVVVP
notes: domain: domain 24
B4: GST-tagged FLNa domain 21 (other)
chain: LGEGGAHKVRAGGPGLERAEAGVPAEFSIWTREAGAGGLAIAVEGPSKAEISFEDRKDGSCGVAYVVQEPGDYEVSVKFNEEHIPDSPFVVPV
notes: domain: domain 21
B5: GST-tagged FLNa domain 20 (other)
chain: VKVTGEGRVKESITRRRRAPSVANVGSHCDLSLKIPEISIQDMTAQVTSPSGKTHEAEIVEGENHTYCIRFVPAEMGTHTVSVKYKGQHVPGSPFQFTV
notes: domain: domain 20
B6: GST-tagged FLNa domain 22 (other)
chain: SPSGDARRLTVSSLQESGLKVNQPASFAVSLNGAKGAIDAKVHSPSGALEECYVTEIDQDKYAVRFIPRENGVYLIDVKFNGTHIPGSPFKIRV
notes: domain: domain 22
B7: GST-tagged FLNa domain 18 (other)
chain: RVTGDDSMRMSHLKVGSAADIPINISETDLSLLTATVVPPSGREEPCLLKRLRNGHVGISFVPKETGEHLVHVKKNGQHVASSPIPVVI
notes: domain: domain 18
B8: GST-tagged FLNa domain 17 (other)
chain: DYVNCGHVTAYGPGLTHGVVNKPATFTVNTKDAGEGGLSLAIEGPSKAEISCTDNQDGTCSVSYLPVLPGDYSILVKYNEQHVPGSPFTA
notes: domain: domain 17
B9: GST-tagged FLNa domain 23 (other)
chain: GHGGDPGLVSAYGAGLEGGVTGNPAEFVVNTSNAGAGALSVTIDGPSKVKMDCQECPEGYRVTYTPMAPGSYLISIKYGGPYHIGGSPFKAKV
notes: domain: domain 23
B10: GST-tagged FLNa domain 19 (other)
chain: SEIGDASRVRVSGQGLHEGHTFEPAEFIIDTRDAGYGGLSLSIEGPSKVDINTEDLEDGTCRVTYCPTEPGNYIINIKFADQHVPGSPFS
notes: domain: domain 19

One assay concerns the target filamin A (FLNa) of human tumour cell lines (endogenous) (human) (UniProt P21333). Put plainly: cell-based or functional assay.
As for KKRPK-PrP-GPI-PSS synthetic peptide, the inhibition of cellular motility of A7 cells (wound-healing assay) is 50% and 60%.

The target in another assay is recombinant pro-PrP^23-253 (human, UniProt P04156 23-253). Put plainly: in vitro pull-down with mAb 8H4 and protein G beads, anti-GST immunoblot. Background: Immunoblotting shows a protein as a band on a membrane.
With B1, the binding result is recorded as “binds”.

B2: the binding result was “no binding”.

In the case of B3, the binding result is recorded as “no binding”.

B4: the binding result was “binds”.

As to B5, the binding result is reported as “binds”.

For B6, the binding result is given as “no binding”.

For B7, the binding result is “binds”.

In the case of B8, the binding result is recorded as “binds”.

For B9, the binding result was “binds”.

For the molecule B10, the binding result is “no binding”.
